Assay results published in patent publication US8377701B2, “Specific ligands to sortilin” (H. Lundbeck A/S, priority 2008, dated 2013).
Where no end group is shown, it is not given here.

How the values were obtained:
S316E mutant sSortilin = target: T1, S316E mutant sSortilin (Homo sapiens, UniProt Q99523, S316E); experiment: Surface plasmon resonance: ligand binding to purified sSortilin S316E mutant; details: compared with wtSortilin
T1 construct: His6 (C); made in house; host or cells: CHO cells
T1 sequence (Q99523 78-755 S316E): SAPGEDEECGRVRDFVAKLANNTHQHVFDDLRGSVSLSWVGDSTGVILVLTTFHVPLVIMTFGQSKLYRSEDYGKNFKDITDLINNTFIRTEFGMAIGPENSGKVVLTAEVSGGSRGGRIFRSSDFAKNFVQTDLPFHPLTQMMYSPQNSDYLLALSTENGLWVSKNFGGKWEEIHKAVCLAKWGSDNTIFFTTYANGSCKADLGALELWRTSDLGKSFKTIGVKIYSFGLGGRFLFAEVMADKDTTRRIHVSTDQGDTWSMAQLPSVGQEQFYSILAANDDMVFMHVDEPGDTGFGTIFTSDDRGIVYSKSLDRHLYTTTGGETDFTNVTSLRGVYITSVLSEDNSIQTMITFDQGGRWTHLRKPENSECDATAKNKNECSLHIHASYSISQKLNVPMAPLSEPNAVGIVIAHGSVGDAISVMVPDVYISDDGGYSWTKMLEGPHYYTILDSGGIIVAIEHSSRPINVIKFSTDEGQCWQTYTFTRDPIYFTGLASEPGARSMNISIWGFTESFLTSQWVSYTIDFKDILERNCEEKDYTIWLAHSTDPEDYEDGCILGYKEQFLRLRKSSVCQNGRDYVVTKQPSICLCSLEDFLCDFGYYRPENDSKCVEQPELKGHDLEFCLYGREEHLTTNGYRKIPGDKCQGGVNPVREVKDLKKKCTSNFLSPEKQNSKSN
Experimental: (§1) Surface plasmon resonance (SPR) measurements were performed on a BIAcore 2000 instrument (Biacore Sweden) equipped with CM5 sensor chips maintained at 20° C. A continuous flow of HBS buffer (10 mM HEPES pH 7.4, 3.4 mM EDTA, 150 mM NaCl, 0.005% surfactant P20) passing over the sensor surface was maintained at 5 μl/min. […] A sortilin solution (320 μl, 5 μg/ml in 10 mM sodium acetate pH 4.0) was then injected over flow cells 1 and 2 at a flow rate of 15 μl/min. Remaining binding sites in all three flow cells were blocked by injection (5 μl/min) of 70 μl of 1 M ethanolamine pH 8.5. […] Screening of the samples was performed by injecting aliquots of 50 μl, at concentrations of 0.1-8 μM, through all flow cells with a flow rate of 5 μl/min. Unless otherwise stated, the samples were dissolved in 10 mM HEPES pH 7.4, 150 mM NaCl, 1.5 mM CaCl2, 1 mM EGTA, 0.005% surfactant P20. Sample buffer was also used as running buffer. The BIAcore response is expressed in relative response units (RU), i.e. the difference in response between the immobilized protein flow cell and the corresponding control flow cell (activated and blocked but without protein). Regeneration of the sensor chip after each cycle of analysis was performed by injecting 20 μl of 10 mM glycine/HCl pH 4.0, 500 mM NaCl, 20 mM EDTA and 0.005% surfactant P20. For calciumfree conditions, HBS containing 20 mM EDTA was used as sample as well as running buffer.

sSortilin [1] = target: T2, sSortilin (Homo sapiens, UniProt Q99523); experiment: Surface plasmon resonance: ligand binding to immobilized sSortilin in absence or presence of Neurotensin derived peptides; details: for inhibition of binding of Sort-pro (GST-Sort-pro) to sSortilin: FIG. 3A+B
T2 construct: Soluble Sortilin (sSortilin); His6 (C); made in house; host or cells: CHO-K1
T2 sequence (Q99523 78-755 limits assumed): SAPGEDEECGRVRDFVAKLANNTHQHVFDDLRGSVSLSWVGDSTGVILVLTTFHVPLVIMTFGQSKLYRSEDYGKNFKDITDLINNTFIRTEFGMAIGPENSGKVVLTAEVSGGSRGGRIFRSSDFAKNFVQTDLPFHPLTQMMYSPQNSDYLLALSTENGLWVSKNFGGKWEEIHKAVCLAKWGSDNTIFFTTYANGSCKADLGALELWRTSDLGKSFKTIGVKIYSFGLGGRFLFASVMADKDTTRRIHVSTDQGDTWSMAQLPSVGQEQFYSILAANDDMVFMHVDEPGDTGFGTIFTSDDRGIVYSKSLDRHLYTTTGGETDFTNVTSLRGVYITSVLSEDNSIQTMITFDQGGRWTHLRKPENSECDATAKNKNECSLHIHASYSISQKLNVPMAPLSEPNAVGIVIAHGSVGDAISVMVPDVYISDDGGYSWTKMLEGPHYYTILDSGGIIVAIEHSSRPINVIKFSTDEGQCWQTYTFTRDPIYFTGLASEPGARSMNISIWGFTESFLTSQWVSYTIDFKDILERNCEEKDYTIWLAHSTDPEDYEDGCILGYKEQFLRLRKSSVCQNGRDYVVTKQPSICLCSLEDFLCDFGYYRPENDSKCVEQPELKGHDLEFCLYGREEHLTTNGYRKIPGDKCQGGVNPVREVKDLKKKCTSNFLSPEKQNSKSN
Experimental: as §1

sSortilin [2] = target: T2, sSortilin; experiment: Surface plasmon resonance affinity of NGFpro and icosapeptides for immobilized sSortilin; assay type: binding; details: BIAcore 3000, 20° C., read-out: dissociation constant (Kd)
Experimental: All measurements were performed on a BIAcore 3000 instrument (Biacore Sweden) maintained at 20° C. A continuous flow of buffer F (10 mM HEPES pH=7.4, 150 mM (NH4)2SO4, 1.5 mM CaCl2, 1.5 mM EGTA and 0.005% Tween-20) was passed over the CM5 chip sensor surface at 5 μl/min. The affinity of NGFpro and the peptides for immobilized sSortilin were determined. The dissociation constant (Kd) for NGFpro was ˜10 nM and for peptide-4 (SEQ ID NO:51) ˜5 μM. The ability of the peptides to compete with NGFpro for binding to sSortilin was tested as well.

Molecule	binding to S316E mutant (S316E mutant sSortilin)	inhibition of binding of Sort-pro (GST-Sort-pro) to sSortilin (sSortilin [1])	further results
BDNF: Mature BDNF, SEQ ID NO. 7 residues 128 to 246, purchased from R&D Systems	affinities similar to that of wtSortilin	–	–
Arg8-Arg-Pro-Tyr-Ile-Leu13-NH2 [reference compound]	–	fails to inhibit	–
Tyr-Ile-Leu [YIL]	–	full inhibition	inhibition of binding of the prodomain of NGF to sSortilin (sSortilin [1]; FIG. 3C, not as efficiently as full length NT): hampers binding; inhibition of binding of RAP to sSortilin (sSortilin [1]; FIG. 3D, not as efficiently as full length NT): hampers binding; affinity for Sortilin (sSortilin [1]; summary statement): high affinity
Sort-pro: Sortilin's own propeptide, residues 34-77 of SEQ ID NO:1, fused to GST (QDRLDAPPPPAAPLPRWSGPIGVSWGLRAAAAGGAFPRGGRWRR; also: fused to GST)	no binding	–	–
ITVDPRLFKKRRLRSPRVLF-NH2 [peptide-4]	–	–	Kd (sSortilin [2]): ~5 µM
NGFpro: propeptide of Nerve Growth Factor, residues 19-121 of SEQ ID NO:6 (protein, left off: a dimerising Fc or GST) EPHSESNVPAGHTIPQVHWTKLQHSLDTALRRARSAPAAAIAARVAGQTRNITVDPRLFKKRRLRSPRVLFSTQPPREAADTQDLDFEVGGAAPFNRTHRSKR	affinities similar to that of wtSortilin	–	–
